Measured values taken from patent US20120088722.

Test system: T1, fluorescence labeled peptide of the protease-sensitive hinge region of LTBP1, REHGARS
T1 sequence: REHGARS

MMP13 catalytic domain (Enzo, Inc)
Km (Michaelis-Menten non-linear fit, digest of fluorescence labeled hinge substrate): Km=1.628e-016
